Results from paper PMC4547048.

Substrate: CC(C)C[C@H](N)C(=O)Nc1ccc([N+](=O)[O-])cc1
Test: purified protein
Assay type: biochemical, Anopheles gambiae
Details: 1 mM MnCl2, pH 7.5, 10 mM Tris-HCl, 150 mM NaCl, 25 °C

B1: AnAPN1 (near full-length recombinant, rFL-APN1) (Anopheles gambiae) (protein)
chain: PPYKSSGIYEEEPQLPGASDLSGGVASDEIGVAPAQAVDERYRLPTTSIPIHYDLHLRTEIHRNERTFTGTVGIQLQVVQATDKLVMHNRGLVMSSAKVSSLPNGVTGAPTLIGDVQYSTDTTFEHITFTSPTILQPGTYLLEVAFQGRLATNDDGFYVSSYVADNGERRYLATTQFESTSARMAFPCYDEPGLKATFTVSITHSLSYKAISNMPQKTTTDIETDMRTTFFEKTPAMSTYLLAFVVSDFQLRLSGAQRVYVRPNAFNEATFALEAGVKILKVLDDHLGIPYDTYMPKLDQIAIPDFAAGAMENWGLVTYREQALLFNPAVSTYRGKTNVATTIAHEYAHQWFGNLVSPEWWEYIWLNEGFATLYEFYALDMAYPGQEYWELFNQQVIQYAMGQDGQASTRPMNWNAATPGEISALFDRVAYDKSGSVLNMMRHVLGDDNWKAGLKAYLTDRALQGAVDEQLYAGLQSAIEGKGVLPNGVTVAQIMRTWTNEAGYPVLNVRRSYDTGDVIISQERFYNDRKVPNTNIWMIPYNYVHQAKADFNEFDDFQWLATKAARIETTVPANEWIVFNKQQVGYYRVNYDEHNWELITNALHENWASIHRLNRAQLIDDAYWLARSGRLDLRVALRFMTYLRNEREYAPWTAANVALTYFNNRLRGTAEYHNFLIFVDALIEDIYSLLTIDAVSPDDTLLHKYLVQTISTWACSMGYTDCLMKTAALLKAEASGTGPAVHPDIASVTYCYGMRSALESEFQYLYRKMMNSKNLAERTMLIDSLGCSNNKEFLKAFLTTALGSGTGVEINYRADERRRVVQAIYSGGRTGVDALIEFLMDPALVNEFVSTLSTSTLNSALSAIASRTNNVEEMNKLNALITALGSRVNSQTAANLRTTAQANLDWVNGFEGLMLSNFLAE
Protein B1 has a Km of 1840 µM.
